Among the data in patent US20230257472A1 (JIANGSU HENGRUI MEDICINE, published 2023) are Kd, koff and kon values, retold here.

The term Kd denotes the equilibrium constant for the complex coming apart. Low readings indicate a tighter complex, high ones a looser complex. As a reminder, the koff is the first-order rate constant of dissociation. As usually defined, the kon is the rate constant with which the complex forms.

The experiment addresses T1, His-tagged CD70 protein extracellular domain (His-TNC-CD70) (human).
T1 construct: Expressed in 293 cells; also called human His-TNC-CD70 antigen; human CD70 antigen
T1 chain: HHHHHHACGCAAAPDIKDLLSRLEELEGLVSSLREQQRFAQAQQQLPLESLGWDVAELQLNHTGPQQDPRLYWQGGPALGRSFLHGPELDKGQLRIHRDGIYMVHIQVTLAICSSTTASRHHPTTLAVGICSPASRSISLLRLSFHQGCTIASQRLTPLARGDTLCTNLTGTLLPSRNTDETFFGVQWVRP
Briefly: SPR Biacore T200, antibody captured by anti-human Fc, His-TNC-CD70 in flow, 1:1 model. How it is done:
The affinity of the chimeric and humanized antibodies of the present disclosure for the human CD70 antigen was tested using a Biacore instrument. The procedures are as follows:
The human Fc capture molecules were covalently coupled to a CM5 biosensor chip (CAT #BR-1005-30, GE) according to the method described in the instructions of the human Fc capture kit (CAT #BR-1008-39, GE) for affinity capture of the antibodies to be tested. Then, a human His-TNC-CD70 antigen (set forth in SEQ ID NO: 1) flowed through the surface of the chip, and the reaction signal was detected in real time using a Biacore T200 instrument to obtain association and dissociation curves. After the dissociation was completed for each cycle, the biochip was washed and regenerated with a regeneration solution configured in the human antibody capture kit (GE). Data were fitted using a 1:1 model.
Background: SPR reads the build-up and loss of mass on a sensor chip optically.

B1: huB7010 (antibody, human IgG1, kappa, V domains shown)
VH: EIQLVQSGSELKKPGASVKVSCKTSGYTFTNYGMNWVRQAPGQGLEWMGWINTYTGEPTYADEFKGRFVFSLETSVSTAYLQISSLKAEDTAVYYCARGDSFTTEILRNWYFDVWGQGTTVTVSS
VL: DIQMTQSPSSLSASVGDRVTITCGASENIYGALNWYQQKPGKVPKLLIYGATNLADGVPSRFSGSGSGRDYTLTISSLQPEDVATYYCQNVLSTPWTFGGGTKVEIKR
notes: Humanized IgG1
B1 returned a Kd of 39.6 pM, a koff of 0.000172 s⁻¹ and an on-rate constant (kon) of 4.36e+06 M⁻¹ s⁻¹.

B2: huB7016 (antibody, human IgG1, kappa, V domains shown)
VH: EIQLVQSGSELKKPGASVKVSCKTSGYTFTNYGMNWVRQAPGQGLEWMGWINTYTGEPTYADEFKGRFVFSLETSVSTAYLQISSLKAEDTAVYYCARGDSFTTEILRNWYFDVWGQGTTVTVSS
VL: DIQMTQSPSSLSASVGDRVTITCGASENIYGALNWYQQKPGKSPKLLIYGATNLADGVPSRFSGSGSGRDYTLTISSLQPEDVATYYCQNVLSTPWTFGGGTKVEIKR
notes: Humanized IgG1
B2 yielded a Kd of 41.8 pM, a koff of 0.000185 s⁻¹ and a kon of 4.43e+06 M⁻¹ s⁻¹.

B3: huB7006 (antibody, human IgG1, kappa, V domains shown)
VH: EIQLVQSGSELKKPGASVKVSCKTSGYTFTNYGMNWVRQAPGQGLKWMGWINTYTGEPTYADEFKGRFVFSLETSVSTAYLQINSLKAEDTAVYYCARGDSFTTEILRNWYFDVWGQGTTVTVSS
VL: DIQMTQSPSSLSASVGDRVTITCGASENIYGALNWYQQKPGKVPKLLIYGATNLADGVPSRFSGSGSGTDFTLTISSLQPEDVATYYCQNVLSTPWTFGGGTKVEIKR
notes: Humanized IgG1
For the molecule B3, binding was characterised by a dissociation constant (Kd) of 24.6 pM, the off-rate constant (koff) turned out to be 0.000158 s⁻¹ and the kon came out at 6.41e+06 M⁻¹ s⁻¹.

B4: huB7004 (antibody, human IgG1, kappa, V domains shown)
VH: EIQLVQSGSELKKPGASVKVSCKTSGYTFTNYGMNWVRQAPGQGLEWMGWINTYTGEPTYADEFKGRFVFSLETSVSTAYLQISSLKAEDTAVYYCARGDSFTTEILRNWYFDVWGQGTTVTVSS
VL: DIQMTQSPSSLSASVGDRVTITCGASENIYGALNWYQQKPGKVPKLLIYGATNLADGVPSRFSGSGSGTDFTLTISSLQPEDVATYYCQNVLSTPWTFGGGTKVEIKR
notes: Humanized IgG1
B4: the affinity, expressed as Kd, was 28.2 pM; the koff was found to be 0.000157 s⁻¹; the kon turned out to be 5.58e+06 M⁻¹ s⁻¹.

B5: huB7018 (antibody, human IgG1, kappa, V domains shown)
VH: EIQLVQSGSELKKPGASVKVSCKTSGYTFTNYGMNWVRQAPGQGLKWMGWINTYTGEPTYADEFKGRFVFSLETSVSTAYLQINSLKAEDTAVYYCARGDSFTTEILRNWYFDVWGQGTTVTVSS
VL: DIQMTQSPSSLSASVGDRVTITCGASENIYGALNWYQQKPGKSPKLLIYGATNLADGVPSRFSGSGSGRDYTLTISSLQPEDVATYYCQNVLSTPWTFGGGTKVEIKR
notes: Humanized IgG1
On to B5, for which the Kd came to 46.4 pM, the dissociation rate constant (koff) stood at 0.000191 s⁻¹ and the kon was 4.12e+06 M⁻¹ s⁻¹.

B6: huB7022 (antibody, human IgG1, kappa, V domains shown)
VH: EIQLVQSGSELKKPGASVKVSCKTSGYTFTNYGMNWVRQAPGQGLEWMGWINTYTGEPTYADEFKGRFVFSLETSVSTAYLQISSLKAEDTAVYYCARGDSFTTEILRNWYFDVWGQGTTVTVSS
VL: DIQMTQSPSSLSASVGDRVTITCGASENIYGALNWYQRKPGKSPKLLIYGATNLADGVPSRFSGSGSGRQYTLTISSLQPEDVATYYCQNVLSTPWTFGGGTKVEIKR
notes: Humanized IgG1
As for B6, the Kd came to 44.2 pM, the dissociation rate constant (koff) is 0.000195 s⁻¹ and the kon came out at 4.41e+06 M⁻¹ s⁻¹.

B7: huB7008 (antibody, human IgG1, kappa, V domains shown)
VH: EVQLVQSGSELKKPGASVKVSCKASGYTFTNYGMNWVRQAPGQGLEWMGWINTYTGEPTYADEFKGRFVFSLDTSVSTAYLQISSLKAEDTAVYYCARGDSFTTEILRNWYFDVWGQGTTVTVSS
VL: DIQMTQSPSSLSASVGDRVTITCGASENIYGALNWYQQKPGKVPKLLIYGATNLADGVPSRFSGSGSGRDYTLTISSLQPEDVATYYCQNVLSTPWTFGGGTKVEIKR
notes: Humanized IgG1
Turning to B7, binding was characterised by a dissociation constant (Kd) of 34.7 pM, the off-rate (koff) turned out to be 0.000169 s⁻¹ and the kon worked out at 4.87e+06 M⁻¹ s⁻¹.

B8: huB7020 (antibody, human IgG1, kappa, V domains shown)
VH: EVQLVQSGSELKKPGASVKVSCKASGYTFTNYGMNWVRQAPGQGLEWMGWINTYTGEPTYADEFKGRFVFSLDTSVSTAYLQISSLKAEDTAVYYCARGDSFTTEILRNWYFDVWGQGTTVTVSS
VL: DIQMTQSPSSLSASVGDRVTITCGASENIYGALNWYQRKPGKSPKLLIYGATNLADGVPSRFSGSGSGRQYTLTISSLQPEDVATYYCQNVLSTPWTFGGGTKVEIKR
notes: Humanized IgG1
The molecule B8 yielded a Kd of 27.6 pM, a koff of 0.000159 s⁻¹ and a kon of 5.76e+06 M⁻¹ s⁻¹.

B9: huB7014 (antibody, human IgG1, kappa, V domains shown)
VH: EVQLVQSGSELKKPGASVKVSCKASGYTFTNYGMNWVRQAPGQGLEWMGWINTYTGEPTYADEFKGRFVFSLDTSVSTAYLQISSLKAEDTAVYYCARGDSFTTEILRNWYFDVWGQGTTVTVSS
VL: DIQMTQSPSSLSASVGDRVTITCGASENIYGALNWYQQKPGKSPKLLIYGATNLADGVPSRFSGSGSGRDYTLTISSLQPEDVATYYCQNVLSTPWTFGGGTKVEIKR
notes: Humanized IgG1
In turn, B9 displayed a Kd of 37.1 pM, a koff of 0.000182 s⁻¹ and a kon of 4.92e+06 M⁻¹ s⁻¹.

B10: huB7024 (antibody, human IgG1, kappa, V domains shown)
VH: EIQLVQSGSELKKPGASVKVSCKTSGYTFTNYGMNWVRQAPGQGLKWMGWINTYTGEPTYADEFKGRFVFSLETSVSTAYLQINSLKAEDTAVYYCARGDSFTTEILRNWYFDVWGQGTTVTVSS
VL: DIQMTQSPSSLSASVGDRVTITCGASENIYGALNWYQRKPGKSPKLLIYGATNLADGVPSRFSGSGSGRQYTLTISSLQPEDVATYYCQNVLSTPWTFGGGTKVEIKR
notes: Humanized IgG1
B10: the affinity, expressed as Kd, was 46.4 pM; the koff came to 0.000205 s⁻¹; the kon came to 4.41e+06 M⁻¹ s⁻¹.

B11: huB7012 (antibody, human IgG1, kappa, V domains shown)
VH: EIQLVQSGSELKKPGASVKVSCKTSGYTFTNYGMNWVRQAPGQGLKWMGWINTYTGEPTYADEFKGRFVFSLETSVSTAYLQINSLKAEDTAVYYCARGDSFTTEILRNWYFDVWGQGTTVTVSS
VL: DIQMTQSPSSLSASVGDRVTITCGASENIYGALNWYQQKPGKVPKLLIYGATNLADGVPSRFSGSGSGRDYTLTISSLQPEDVATYYCQNVLSTPWTFGGGTKVEIKR
notes: Humanized IgG1
B11 registered a Kd of 25.7 pM, a koff of 0.000154 s⁻¹ and an on-rate constant (kon) of 5.99e+06 M⁻¹ s⁻¹.

B12: huF4027 (antibody, human IgG1, kappa, V domains shown)
VH: EVQLVQSGAEVKKPGSSVKVSCKASGDTFPRYNMHWVRQAPGQGLEWMGAIFPGNGETSYNQNFKGRVTLTADKSTSTAYMELSSLRSEDTAVYYCARNSYYDYAWFTYWGQGTLVTVSS
VL: DIVMTQSPDSLAVSLGERATINCRASKSVSSSGYSFMHWYQQKPGQPPKLLIYLASNLESGVPDRFSGSGSGTDFTLTISSLQAEDVAVYYCQHSREFPPTFGQGTKLEIKR
notes: Humanized IgG1
Take B12: the Kd was 33.5 pM, the koff is 9.13e-05 s⁻¹ and the kon came to 2.73e+06 M⁻¹ s⁻¹.

B13: huF4025 (antibody, human IgG1, kappa, V domains shown)
VH: EVQLVQSGAEVKKPGSSVKVSCKASGGTFSRYNMHWVRQAPGQGLEWMGAIFPGNGETSYNQNFKGRVTITADKSTSTAYMELSSLRSEDTAVYYCARNSYYDYAWFTYWGQGTLVTVSS
VL: DIVMTQSPDSLAVSLGERATINCRASKSVSSSGYSFMHWYQQKPGQPPKLLIYLASNLESGVPDRFSGSGSGTDFTLTISSLQAEDVAVYYCQHSREFPPTFGQGTKLEIKR
notes: Humanized IgG1
For B13, binding was put at a Kd of 40.3 pM, the koff was determined as 8.68e-05 s⁻¹ and the kon came out at 2.15e+06 M⁻¹ s⁻¹.

B14: huF4028 (antibody, human IgG1, kappa, V domains shown)
VH: EVQLVQSGAEVKKPGSSVKVSCKASGDTFPRYNMHWLKQAPGQGLEWMGAIFPGNGETSYNQNFKGRVTLTADKSTSTAYMELSSLRSEDTAVYYCARNSYYDYAWFTYWGQGTLVTVSS
VL: DIVMTQSPDSLAVSLGERATINCRASKSVSSSGYSFMHWYQQKPGQPPKLLIYLASNLESGVPDRFSGSGSGTDFTLTISSLQAEDVAVYYCQHSREFPPTFGQGTKLEIKR
notes: Humanized IgG1
B14: binding was put at a Kd of 41.2 pM, the koff came to 0.000106 s⁻¹ and the kon is 2.56e+06 M⁻¹ s⁻¹.

B15: huF4026 (antibody, human IgG1, kappa, V domains shown)
VH: EVQLVQSGAEVKKPGSSVKVSCKASGDTFPRYNMHWVRQAPGQGLEWMGAIFPGNGETSYNQNFKGRVTITADKSTSTAYMELSSLRSEDTAVYYCARNSYYDYAWFTYWGQGTLVTVSS
VL: DIVMTQSPDSLAVSLGERATINCRASKSVSSSGYSFMHWYQQKPGQPPKLLIYLASNLESGVPDRFSGSGSGTDFTLTISSLQAEDVAVYYCQHSREFPPTFGQGTKLEIKR
notes: Humanized IgG1
Molecule B15 showed a Kd of 39.2 pM, a koff of 9.56e-05 s⁻¹ and a kon of 2.44e+06 M⁻¹ s⁻¹.

B16: huF4009 (antibody, human IgG1, kappa, V domains shown)
VH: EVQLVQSGAEVKKPGSSVKVSCKASGDTFPRYNMHWVRQAPGQGLEWMGAIFPGTGETSYNQNFKGRVTLTADKSTSTAYMELSSLRSEDTAVYYCARNSYYDYAWFTYWGQGTLVTVSS
VL: DIVMTQSPDSLAVSLGERATINCRASKSVSSSGYSFMHWYQQKPGQPPKLLIYLADNLESGVPDRFSGSGSGTDFTLTISSLQAEDVAVYYCQHSREFPPTFGQGTKLEIKR
notes: Humanized IgG1
As for B16, binding was characterised by a dissociation constant (Kd) of 45.5 pM, the off-rate constant (koff) was 0.000114 s⁻¹ and the kon is 2.51e+06 M⁻¹ s⁻¹.
